Reference: article PMC4833862

Molecular target: CthACC (full-length Chaetomium thermophilum acetyl-CoA carboxylase, 1-2,297) (Chaetomium thermophilum)
Experiment: SAXS; 30 mM MOPS pH 7, 200 mM ammonium sulfate, 5% glycerol, 10 mM dithiothreitol; 2.5, 5 and 10 mg/ml, extrapolated to zero concentration

## CthACC (full-length Chaetomium thermophilum acetyl-CoA carboxylase, 1-2,297) (enzyme)
  stoichiometry N: 2
